In patent US8680233B2, “Heteropeptides useful for reducing nonspecific adsorption” (Valorisation-Recherche, Limited Partnership, priority 2009, dated 2014):
Each block holds one molecule with its values, some of them ahead of it. Square brackets hold non-standard residues; d marks the D form. Mpa = O=C(O)CCS

Experiments:
[1] = Capillary electrophoresis, global charge of the peptide; type: physicochemical
Method: Capillary electrophoresis was performed to determine if this difference of configuration is due to the global charge of the peptide.

[2] = Advancing contact angle in PBS on peptide SAMs; type: physicochemical; details: average of four replicates
[3] = Secondary structure of peptide SAM by FT-IR (mid-IR amide band); type: physicochemical; details: peptide SAM on gold-coated SPR sensor
Method: Microscope slides (BK7, 22×22 mm) were coated with a 3 nm titanium (Ti) adhesion layer and a 50 nm gold (Au) layer (purity 99.99%, ESPI metals) using a Cressington™ 308R sputter coater. These Au-coated SPR slides were immersed for at least 16 h in a 5 mM peptide solution in absolute ethanol to form a well-ordered monolayer (Masson, J. F. et al. Talanta 2004, 64: 716). Four replicates were prepared for each 3-MPA-peptide. The SAM formed on the SPR sensors was extensively rinsed with DMF and ethanol and dried. The mid-IR spectrum of the peptide monolayers immobilized on the SPR sensors was measured in attenuated total reflectance (ATR). Mid-IR spectra were recorded using a BRUKER TENSOR® 27 equipped with a Ge-ATR module.
The 3D structure of the peptides as SAMs is observed with the amide band visible in FT-IR. Peptides adopting an α-helix configuration are showing a strong amide band at 1645 cm^−1, while peptides auto-assembling in the β-sheet configuration leads to a shifted amide at 1675 cm^−1. Every peptide structure investigated in Table 1 adopted an α-helix configuration except for 3-MPA-HHHDD-OH, as shown in FIG. 3.
Peptides adopt secondary conformation, which plays a significant role in their biological activity. For peptides in solution, the secondary conformation is measured with CD, while peptides immobilized on a surface can be analyzed with mid-IR spectroscopy of the amide bands (Duevel, R. V., Corn, R. M., 1992. Analytical Chemistry 64(4), 337-342; Sakurai, T. et al., 2006. Journal of Peptide Science 12(6), 396-402). As listed in Table II, the secondary structure of most peptides adopted an α-helical conformation, with the exception of 3-MPA-DSDSD-OH, which adopted an extended conformation. As noted above, most peptides in the form of 3-MPA-peptide-OH adopt an α-helical conformation. Generally, mid-IR and CD agreed in the determination of the structures on surfaces and in solution, with the exception of one peptide. […] No relationship between structure and nonspecific adsorption could be established.

[4] = Surface concentration of the peptide monolayer on Au by SPR; type: physicochemical; details: peptide SAM on Au SPR sensor; average of four replicates
Method: The surface coverage for each monolayer was measured according to the change in response of the SPR sensor in PBS for the bare Au surface relative to the peptide-coated Au surface. To measure the formation of the monolayers, each SPR sensor was mounted on a custom-made SPR instrument in the Kretschmann configuration based on a dove prism with wavelength interrogation as previously described (Bolduc et al., 2009, supra). An Ocean Optics™ USB4000 fibre optic spectrometer ranging from 550 to 850 nm was used to acquire the spectral information processed with Matlab to obtain the SPR sensorgram. A 25 μL Teflon fluidic cell positioned on top of the SPR sensors was used to inject the solutions required to functionalize with the recognition element and detect the analytes of interest. The SPR response was acquired at a frequency of 1 Hz. The s-polarized reference was acquired in PBS buffer before monitoring a 5 minute baseline in p-polarization. PBS was replaced with crude bovine serum (76 mg/mL protein) for 20 minutes and rinsed with PBS for 5 minutes to quantify the amount of non-specifically adsorbed proteins.
The formation of monolayers on Au was measured to ensure that the peptide monolayers are indeed binding to the SPR sensor. The surface concentration of the monolayer provides a measurement of the number of molecules per square cm (i.e. the density of the monolayer at the surface). The surface concentration (Γ) of peptide-like self-assembled monolayers (SAMs) was characterized with the measurement of the SPR response before the formation of the SAMs and after their formation on the Au surface of the SPR sensor. The difference of SPR wavelength (λSPR) between these two measurements increases with the increasing surface concentration of the SAMs following the equation proposed by Jung et al. (Jung, L. S. et al. Langmuir 1998, 14: 5636): Γ=ρ(−0.5/d)ln(1−(ΔλSPRm^−1(ηSAM−ηPBS)^−1)) (eq. 1)

[5] = target: T1, human dihydrofolate reductase (hDHFR) (Homo sapiens, UniProt P00374); test: Real-time UV/Vis monitoring of the enzymatic reaction of immobilized hDHFR; type: biochemical
T1 construct: made in house
T1 sequence (P00374 1-187): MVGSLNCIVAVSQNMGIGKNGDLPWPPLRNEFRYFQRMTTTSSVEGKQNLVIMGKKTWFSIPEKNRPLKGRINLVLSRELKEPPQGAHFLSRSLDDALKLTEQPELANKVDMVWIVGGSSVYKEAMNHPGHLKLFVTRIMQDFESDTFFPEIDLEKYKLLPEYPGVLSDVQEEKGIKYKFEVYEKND
Method: The peptidomimetic monolayer binding His-tagged biomolecules was exposed for a period of 15 min to a 50 μg/mL PBS solution of His-tagged hDHFR, then rinsed with PBS. The SPR sensor with His-tagged hDHFR was placed in a UV/Vis cuvette, similar to a method developed by Knoll et al. (Xu et al., 2005. Journal of the American Chemical Society 127(38), 13084-13085). His-tagged hDHFR was obtained as previously reported (Volpato et al., 2007 Journal of Molecular Biology 373, 599-611). A negative control, consisting of the peptidomimetic-modified SPR sensor without hDHFR was exposed to buffer and rinsed to verify that the observed change in absorbance was due to immobilized His-tagged hDHFR and not to the surface itself. The enzymatic reaction catalyzed by hDHFR was monitored by UV/Vis spectrometry. The SPR sensors were immersed in a solution of 100 μM NADPH (cofactor) and 100 μM dihydrofolate (DHF, substrate) in 10 mM Tris buffer, pH=8.0, for 1 hour. The activity of the enzyme was measured by following the time course of the absorption (ΔA(t)) at λ=340 nm due to consumption of NADPH and DHF, by subtracting the blank signal (Ablank(t)) and the initial absorbance of the solution (A(O)). The activity was confirmed for each sample of His-tagged hDHFR on the SPR sensor. 1 U of enzyme activity corresponds to conversion of 1 μmol substrate to product per min. Absorption spectra were recorded with a Cary 100 Bio UV/Vis spectrometer equipped with a liquid temperature control system running at 35° C. to be in the optimal condition for the enzymatic reaction to take place. After monitoring the activity, the SPR sensors were rinsed with buffer, 18.2 MΩ water and the His-tagged hDHFR was removed from the surface with a 0.5 M imidazole solution for 10 minutes. […]
In contrast with those results, immobilizing His-tagged hDHFR on the peptidomimetic monolayer allowed to retain the activity of the enzyme. This is observed by a consumption of the reactants (NADPH and DHF), decreasing the absorbance measured at λ=340 nm (FIG. 3). According to the absorption coefficient (Δ∈=12.8 mM^−1 cm^−1), the measured slope (5.7*10 Abs/min) corresponded to an activity of 4.4±0.8*10^−5 U. The specific activity of His-tagged hDHFR previously determined in presence of saturating reactants was 8.5 U/mg. Thus, the activity measured on the surface corresponded to 5±0.9 ng (n=4) of fully active hDHFR. […] The fraction of active enzyme on the surface cannot be determined, because the activity measured for the enzyme immobilized on the surface of the SPR is a factor of the activity of the enzyme (as for the enzyme in solution) and the time required for the products to diffuse in the light beam of the UV-Vis (not a factor for the enzyme in solution). […]

[6] = target: T1, human dihydrofolate reductase (hDHFR); details: previously determined in presence of saturating reactants; cited from earlier work

Molecule: 3-MPA-HHDDD-OH ([Mpa]HHDDD-OH; SMILES O=C(O)C[C@H](NC(=O)[C@H](CC(=O)O)NC(=O)[C@H](CC(=O)O)NC(=O)[C@H](Cc1c[nH]cn1)NC(=O)[C@H](Cc1c[nH]cn1)NC(=O)CCS)C(=O)O)
Global charge of the peptide [1]: about −1

Molecule: 3-MPA-HHHDD-OH ([Mpa]HHHDD-OH; SMILES O=C(O)C[C@H](NC(=O)[C@H](CC(=O)O)NC(=O)[C@H](Cc1c[nH]cn1)NC(=O)[C@H](Cc1c[nH]cn1)NC(=O)[C@H](Cc1c[nH]cn1)NC(=O)CCS)C(=O)O)
Contact angle in PBS θC_PBS [2]: 37.8 °
Secondary Structure FT-IR (SAM) [3]: β-sheet
Surface density ΔΓSAM [4]: 0.230 10^15 molecule/cm^2
Global charge of the peptide [1]: about −1

Molecule: 3-MPA-HHHHD-OH ([Mpa]HHHHD-OH; SMILES O=C(O)C[C@H](NC(=O)[C@H](Cc1c[nH]cn1)NC(=O)[C@H](Cc1c[nH]cn1)NC(=O)[C@H](Cc1c[nH]cn1)NC(=O)[C@H](Cc1c[nH]cn1)NC(=O)CCS)C(=O)O)
Global charge of the peptide [1]: about −1

Average variation of the absorbance value over 60 minutes ([5]; four sensors regenerated with imidazole, n=8): −0.034±0.006
Amount of fully active enzyme corresponding to the measured surface activity ([5]; n=4): 5 ± 0.9 ng
B1: His-tagged hDHFR: His-tagged human dihydrofolate reductase immobilized on the SPR sensor (protein)
chain: T1 sequence (P00374 1-187)
modifications: left off: small tags and cut ends
notes: His-tagged human dihydrofolate reductase immobilized on the SPR sensor
Enzyme activity after covalent immobilization ([5]; covalently immobilized to 16-MHA using EDC/NHS chemistry): inactive
Enzyme activity of immobilized enzyme ([5]; immobilized on peptidomimetic monolayer, absorbance at 340 nm): 4.4±0.8*10^−5 U
Specific activity [6]: 8.5 U/mg
